# Measurements reported in patent US20190300590A1 (PROTAGONIST THERAPEUTICS, published 2019).
# *1 amine or outer side, *2 acyl side, *3 side chain or, on linkers, in order; H or OH if unused. Bridges are numbered along the chain shown (N, C = ends). Primed or numbered codes have the meaning given here. [ ]: non-standard residue; d: D form. Phe(4-OMe)(3) = O-methyl-L-tyrosine (4-methoxy-L-phenylalanine), COc1ccc(C[C@H](N[*:1])C(=O)[*:2])cc1; Phe(4-OMe) = 4-methoxy-L-phenylalanine (O-methyl-L-tyrosine), COc1ccc(C[C@H](N[*:1])C(=O)[*:2])cc1; 6‑amino‑1,4‑diazepane‑2,5‑dione = C-terminal 6-amino-1,4-diazepane-2,5-dione group; Phe(3,4-(OMe)2) = COc1ccc(C[C@H](N)C(=O)O)cc1OC; Phe(3,4-Cl2) = N[C@@H](Cc1ccc(Cl)c(Cl)c1)C(=O)O; Phe(3,4-F2) = N[C@@H](Cc1ccc(F)c(F)c1)C(=O)O; 1Nal = N[C@@H](Cc1cccc2ccccc12)C(=O)O; 2Nal = N[C@@H](Cc1ccc2ccccc2c1)C(=O)O; AEF = NCCOc1ccc(C[C@H](N)C(=O)O)cc1; αMeL = CC(C)C[C@](C)(N)C(=O)O; Chg = N[C@H](C(=O)O)C1CCCCC1; hLeu = CC(C)CC[C@H](N)C(=O)O; αMeK = C[C@](N)(CCCCN)C(=O)O; Abu = CC[C@H](N)C(=O)O; Dap = NC[C@H](N)C(=O)O; Aib = CC(C)(N)C(=O)O
# T1: IL23R_huFC (human, UniProt Q5VWK5 24-353)
# T1 sequence (looked up): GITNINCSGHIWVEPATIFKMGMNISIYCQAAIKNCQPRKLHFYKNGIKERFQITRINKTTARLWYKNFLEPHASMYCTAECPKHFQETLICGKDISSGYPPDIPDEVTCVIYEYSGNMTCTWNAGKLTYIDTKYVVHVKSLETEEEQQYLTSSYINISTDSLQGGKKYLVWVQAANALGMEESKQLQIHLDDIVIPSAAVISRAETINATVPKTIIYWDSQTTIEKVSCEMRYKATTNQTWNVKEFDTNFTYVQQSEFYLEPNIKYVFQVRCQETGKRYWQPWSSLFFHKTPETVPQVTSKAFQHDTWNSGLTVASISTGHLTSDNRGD
# T2: IL-23R on human cells (IL-23R-expressing DB cells; human NK cells) (human, UniProt Q5VWK5 24-629)
# T2 sequence (looked up): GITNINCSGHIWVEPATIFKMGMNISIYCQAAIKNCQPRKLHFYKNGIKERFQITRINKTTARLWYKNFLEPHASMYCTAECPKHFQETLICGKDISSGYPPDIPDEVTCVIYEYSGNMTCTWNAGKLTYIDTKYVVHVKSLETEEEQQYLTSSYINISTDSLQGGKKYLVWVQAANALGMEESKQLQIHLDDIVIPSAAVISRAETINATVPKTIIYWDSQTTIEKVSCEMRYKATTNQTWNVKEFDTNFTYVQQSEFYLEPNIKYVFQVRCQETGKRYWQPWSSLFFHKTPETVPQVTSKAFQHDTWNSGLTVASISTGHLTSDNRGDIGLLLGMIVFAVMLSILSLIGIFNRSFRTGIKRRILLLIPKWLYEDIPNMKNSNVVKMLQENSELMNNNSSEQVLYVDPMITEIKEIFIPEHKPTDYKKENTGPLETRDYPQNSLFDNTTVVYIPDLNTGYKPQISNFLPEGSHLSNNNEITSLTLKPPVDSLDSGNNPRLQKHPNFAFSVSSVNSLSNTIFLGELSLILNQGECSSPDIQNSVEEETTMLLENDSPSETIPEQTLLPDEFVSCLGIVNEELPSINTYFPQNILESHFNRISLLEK
# T3: IL23R_huFC (human, UniProt Q5VWK5 24-353)
# T3 sequence (looked up): T1 sequence (looked up)
# Molecular target: T1, IL23R_huFC
# Test: IL23-IL23R competitive ELISA
row,IC50,Binder
1,500 to 1000 nM,Ac-TQFDCRTWECYWHTFG-NH2 (disulfide 5-10 (inferred)) [Ac-TQFDCRTWECYWHTFG-NH2]
2,500 to 1000 nM,Ac-GGVECNDWQCYWHTFG-NH2 (disulfide 5-10 (inferred)) [Ac-GGVECNDWQCYWHTFG-NH2]
3,500 to 1000 nM,Ac-CADWVCYWHRSTGGQH-NH2 (disulfide 1-6 (inferred)) [Ac-CADWVCYWHRSTGGQH-NH2]
4,500 to 1000 nM,Ac-GDHKCSSWECYWHTFG-NH2 (disulfide 5-10 (inferred)) [Ac-GDHKCSSWECYWHTFG-NH2]

# Molecular target: T2, IL-23R on human cells …
# Test: cell-based or functional assay
row,pStat3 HTRF IC50,Binder
1,< 10 nM,"Ac-[Abu]QTWQC[AEF][Phe(3,4-Cl2)][Aib]ENN-NH2 (thioether 1-6) [Ac-Cyclo-[[Abu]-QTWQC]-[Phe[4-(2-aminoethoxy)]]-[Phe(3,4-Cl2)]-[Aib]-ENN-NH2]"
2,< 10 nM,"Ac-[Abu]QTWQC[AEF]W[αMeK]K(Ac)-{6‑amino‑1,4‑diazepane‑2,5‑dione-NH2} (thioether 1-6)"

# Molecular target: T3, IL23R_huFC
# Test: human ELISA vs IL-23
row,IC50,Binder
1,25 to 100 nM,"Ac-[Abu]QTWQC[Phe(3,4-F2)][2Nal][Aib]ENG-NH2 (thioether 1-6) [Ac-Cyclo-[[Abu]-QTWQC]-[Phe(3,4-F2)]-[2-Nal]-[Aib]-ENG-NH2]"
2,25 to 100 nM,XQTWQCFWXENG (as bracketed in name; thioether cyclo) [Ac-Cyclo-[[Abu]-QTWQC]-[Phe[4-(2-aminoethoxy)]]-W-[Orn]-ENG-NH2]
3,25 to 100 nM,Ac-[Abu]QTWQC[Phe(4-OMe)(3)][2Nal][Chg]K(Ac)NG-NH2 (thioether 1-6) [Ac-Cyclo-[[Abu]-QTWQC]-[Phe(4-OMe)]-[Nal]-[Chg]-[Lys(Ac)]-NG-NH2]
4,25 to 100 nM,Ac-[Abu]QTWQC[AEF][1Nal][Aib]K(Ac)NG-NH2 (thioether 1-6) [Ac-Cyclo-[[Abu]-QTWQC]-[Phe[4-(2-aminoethoxy)]]-1-Nal[Aib]-[Lys(Ac)]-NG-NH2]
5,25 to 100 nM,Ac-[Abu]QTWQC[Phe(4-OMe)][2Nal][αMeL]ENG[dK]-NH2 (thioether 1-6) [Ac-Cyclo-[[Abu]-QTWQC]-[Phe(4-OMe)]-[2-Nal]-[α-MeLeu]-ENG-[(D)Lys]-NH2]
6,25 to 100 nM,Ac-[Abu]QTWQC[Phe(4-OMe)(3)][2Nal][αMeK]K(Ac)NGGE-NH2 (thioether 1-6) [Ac-Cyclo-[[Abu]-QTWQC]-[Phe(4-OMe)]-[2-Nal][α-MeLys]-[Lys(Ac)]-NGGE-NH2]
7,25 to 100 nM,Ac-[Abu]QTWQC[AEF]W[Chg]K(Ac)NG-NH2 (thioether 1-6) [Ac-Cyclo-[[Abu]-QTWQC]-[Phe[4-(2-aminoethoxy)]]-W-Chg-[Lys(Ac)]-NG-NH2]
8,25 to 100 nM,"Ac-[Abu]QTWQC[AEF][Phe(3,4-(OMe)2)][Aib]ENG-NH2 (thioether 1-6) [Ac-Cyclo-[[Abu]-QTWQC]-[Phe[4-(2-aminoethoxy)]]-[Phe(3,4-OMe2)]-[Aib]-ENG-NH2]"
9,25 to 100 nM,"Ac-[Abu]QTWQC[AEF][Phe(3,4-Cl2)][Aib]ENN-NH2 (thioether 1-6) [Ac-Cyclo-[[Abu]-QTWQC]-[Phe[4-(2-aminoethoxy)]]-[Phe(3,4-Cl2)]-[Aib]-ENN-NH2]"
10,25 to 100 nM,"Ac-[Abu][Dap]TWQC[AEF][Phe(3,4-Cl2)][αMeK]K(Ac)NG-NH2 (thioether 1-6) [Ac-Cyclo-[[Abu]-DapTWQC]-[Phe[4-(2-aminoethoxy)]]-[Phe(3,4-Cl2)]-[α-MeLys]--[Lys(Ac)]-NG-NH2]"
11,25 to 100 nM,"Ac-[Abu]QTWQC[AEF]W[αMeK]K(Ac)-{6‑amino‑1,4‑diazepane‑2,5‑dione-NH2} (thioether 1-6)"
12,25 to 100 nM,Ac-[Abu]QTWQCYW[hLeu]ENG-NH2 (thioether 1-6) [Ac-Cyclo-[[Abu]-QTWQC]-YW-[hLeu]-ENG-NH2]
